This is an account of results in patent publication US20110052582A1 (Hoffmann-La Roche, published 2011).

Residue numbers refer to the chain shown, from its start.

The assay addresses T1, Soluble CDCP1 extracellular domain (CDCP1-ECD) (SEQ ID NO:30) fused to Streptavidin Binding Protein (SBP) (human, UniProt Q9H5V8 30-663).
T1 construct: also called SBP-CDCP1-ECD
T1 sequence: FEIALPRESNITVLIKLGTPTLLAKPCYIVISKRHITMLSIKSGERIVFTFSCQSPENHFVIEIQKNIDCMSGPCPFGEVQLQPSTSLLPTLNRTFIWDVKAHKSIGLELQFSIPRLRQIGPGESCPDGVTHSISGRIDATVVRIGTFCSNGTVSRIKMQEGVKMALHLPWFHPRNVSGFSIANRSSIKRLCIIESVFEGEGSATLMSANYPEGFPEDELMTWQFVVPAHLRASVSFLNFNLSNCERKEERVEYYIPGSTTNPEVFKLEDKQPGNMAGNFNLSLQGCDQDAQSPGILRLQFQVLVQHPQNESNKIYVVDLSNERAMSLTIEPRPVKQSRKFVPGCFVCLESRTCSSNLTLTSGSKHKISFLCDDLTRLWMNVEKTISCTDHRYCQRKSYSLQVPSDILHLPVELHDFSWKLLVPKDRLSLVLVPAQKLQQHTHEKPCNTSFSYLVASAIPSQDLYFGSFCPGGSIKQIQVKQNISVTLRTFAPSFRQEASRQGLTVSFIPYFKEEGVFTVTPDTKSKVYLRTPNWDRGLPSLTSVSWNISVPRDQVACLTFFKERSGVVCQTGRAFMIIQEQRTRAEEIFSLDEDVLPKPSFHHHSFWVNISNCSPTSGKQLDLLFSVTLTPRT
The assay is described as follows: ELISA on captured SBP-CDCP1-ECD, ratio relative to chimeric CUB4 (chHC4). The protocol:
Soluble CDCP1 extracellular domain (CDCP1-ECD) (SEQ ID NO:30) fused to Streptavidin Binding Protein (SBP) was captured on a sreptavidine plate. To define optimal binding of the antibody to SBP-CDCP1-ECD, 384-well polystyrene plates (NUNC, streptavidin-coated) delivered by MicroCoat, Bernried, Germany (ID-No. 1734776-001) have been coated with pure and stepwise diluted HEK293 supernatant (in BSA/IMDM buffer: 100 mg/ml BSA Fraction V, Roche 10735078001, dissolved in Iscove's Modified Dulbeccos Medium). Using a calibration curve of mouse CUB4 antibodies the optimal dilution factor of the HEK293 supernatant in relation to the streptavidin binding capacity of the microtiter plate was identified. For the standard coating, SBP-CDCP1-ECD containing HEK293 supernatant was diluted (between 1:15 and 1:40) and incubated overnight at 2-8° C. (25 μl per well). Intensive washing of the microtiter plate is necessary to remove remaining unbound SBP-CDCP1-ECD.
Humanized CUB4 antibodies and/or reference antibody (chimeric (chHC4) CUB4 antibody comprising human constant region and mouse VH and VL of SEQ ID NO:1 and 2) were tested either undiluted or using a 12-step-dilution. 12.5 μl per well of each sample was incubated for 90 min at room temperature. After intensive washing using PBS-T (0.1% Tween 20 in PBS) 25 μl of either goat anti-human IgG antibodies coupled with HRP (Jackson ImmunoResearch, Code No: 109-036-098, dilution 1:10000) for human antibodies were added and incubated for 1 hour. After intensive washing the binding of the antibodies was detected with ABTS tablets (Roche Diagnostics GmbH, Cat. No.: 1112422). Absorbance at 405 nm/492 nm was measured using a standard photometer.

B1: hHC4-a / hLC4-e (antibody, V domains shown)
VH: EVQLVESGGGLVKPGGSLRLSCAASGFTFNSYGMSWVRQAPGKGLEWVSTISSGGSYTYYPDSVKGRFTISRDNAKNSLYLQMNSLRAEDTAVYYCARHPDYDGVWFAYWGQGTLVTVSS
VL: DIQMTQSPSSLSASVGDRVTITCSVSSSVFYVHWYQQKPGKAPKLLIYDTSKLASGVPSRFSGSGSGTDFTFTISSLQPEDIATYYCQQWNSNPPTFGGGTKVEIK
In the case of B1, the relative binding ratio came out at 0.46.

B2: hHC4-c / chLC4 (antibody, V domains shown)
VH: B1 VH with K13Q, S49A
VL: QIVLTQSPAIMSASPGEKVTMTCSVSSSVFYVHWYQQKSGTSPKRWIYDTSKLASGVPARFSGSGSGTSYSLTISSMEAEDAATYYCQQWNSNPPTFGGGTKLEIK
For the molecule B2, the relative binding ratio is 1.

B3: hHC4-a / hLC4-K (antibody, V domains shown)
VH: B1 VH
VL: EIVLTQSPATLSLSPGERATLSCRASSSVFYLHWYQQKPGQAPRLWIYDTSKLASGIPARFSGSGSGTDFTLTISSLEPEDFAVYYCQQWNSNPPTFGGGTKVEIK
For the molecule B3, the relative binding ratio worked out at 0.51.

B4: hHC4-07 / hLC4-e (antibody, V domains shown)
VH: B1 VH with V5L, K13Q, G33A, A75S, S78T, R98K
VL: B1 VL
On to B4, for which the relative binding ratio was 0.07.

B5: hHC4-b / hLC4-e (antibody, V domains shown)
VH: B1 VH with G33S, S35N, T50S, T58I, P61A
VL: B1 VL
Regarding B5, the binding result is recorded as “no binding”.

B6: hHC4-03 / hLC4-f (antibody, V domains shown)
VH: B1 VH with V5L, K13Q, T50A, A75S, S78T, R98K
VL: B1 VL with F70Y
As to B6, the relative binding ratio is 0.07.

B7: hHC4-04 / hLC4-L (antibody, V domains shown)
VH: B1 VH with V5L, K13Q, A75S, S78T
VL: B3 VL with L21M
As to B7, the relative binding ratio turned out to be 0.68.

B8: hHC4-03 / hLC4-M (antibody, V domains shown)
VH: B1 VH with V5L, K13Q, T50A, A75S, S78T, R98K
VL: B3 VL with L21M, R24G, Q41L, A59D, S76R
Turning to B8, the relative binding ratio came to 0.14.

B9: hHC4-04 / hLC4-K (antibody, V domains shown)
VH: B1 VH with V5L, K13Q, A75S, S78T
VL: B3 VL
As for B9, the relative binding ratio is 0.57.

B10: hHC4-d / hLC4-e (antibody, V domains shown)
VH: B1 VH with V5L, K13Q, A75S, S78T, R98K
VL: B1 VL
Turning to B10, the relative binding ratio turned out to be 0.27.

B11: hHC4-04 / hLC4-J (antibody, V domains shown)
VH: B1 VH with V5L, K13Q, A75S, S78T
VL: B3 VL with L4M, L21M, E78Q
Consider B11, for which the relative binding ratio is 0.4.

B12: hHC4-c / hLC4-e (antibody, V domains shown)
VH: B1 VH with K13Q, S49A
VL: B1 VL
As to B12, the relative binding ratio came to 0.25.

B13: hHC4-03 / hLC4-a (antibody, V domains shown)
VH: B1 VH with V5L, K13Q, T50A, A75S, S78T, R98K
VL: B3 VL with R24S, A25V, L32V, W46L
Turning to B13, the relative binding ratio is 0.07.

B14: hHC4-07 / hLC4-f (antibody, V domains shown)
VH: B1 VH with V5L, K13Q, G33A, A75S, S78T, R98K
VL: B1 VL with F70Y
Regarding B14, the relative binding ratio turned out to be 0.07.

B15: hHC4-K2 / hLC4-e (antibody, V domains shown)
VH: B1 VH with T50S, P61A
VL: B1 VL
Regarding B15, the relative binding ratio was 0.07.

B16: hHC4-03 / hLC4-b (antibody, V domains shown)
VH: B1 VH with V5L, K13Q, T50A, A75S, S78T, R98K
VL: B3 VL with R24S, A25V, L32V, W46L, F70Y
On to B16, for which the relative binding ratio is 0.07.

B17: hHC4-04 / hLC4-f (antibody, V domains shown)
VH: B1 VH with V5L, K13Q, A75S, S78T
VL: B1 VL with F70Y
Take B17: the relative binding ratio was found to be 0.37.

B18: hHC4-a / hLC4-f (antibody, V domains shown)
VH: B1 VH
VL: B1 VL with F70Y
In the case of B18, the relative binding ratio turned out to be 0.5.

B19: hHC4-d / hLC4-f (antibody, V domains shown)
VH: B1 VH with V5L, K13Q, A75S, S78T, R98K
VL: B1 VL with F70Y
Take B19: the relative binding ratio came to 0.4.

B20: hHC4-H / hLC4-f (antibody, V domains shown)
VH: B1 VH with K13Q, S49A, T58K, P61V
VL: B1 VL with F70Y
notes: also called Humanized CUB4 Antibody No. 146
As for B20, the relative binding ratio worked out at 0.42.

B21: hHC4-03 / hLC4-L (antibody, V domains shown)
VH: B1 VH with V5L, K13Q, T50A, A75S, S78T, R98K
VL: B3 VL with L21M
For the molecule B21, the relative binding ratio amounted to 0.17.

B22: hHC4-H / chLC4 (antibody, V domains shown)
VH: B1 VH with K13Q, S49A, T58K, P61V
VL: B2 VL
As to B22, the relative binding ratio was 1.12.

B23: hHC4-b / hLC4-f (antibody, V domains shown)
VH: B1 VH with G33S, S35N, T50S, T58I, P61A
VL: B1 VL with F70Y
As for B23, the binding result is given as “no binding”.

B24: hHC4-K / hLC4-e (antibody, V domains shown)
VH: B1 VH with T50S, T58I, P61A
VL: B1 VL
As for B24, the binding result is “no binding”.

B25: hHC4-b / chLC4 (antibody, V domains shown)
VH: B1 VH with G33S, S35N, T50S, T58I, P61A
VL: B2 VL
With B25, the binding result is “no binding”.

B26: hHC4-03 / hLC4-I (antibody, V domains shown)
VH: B1 VH with V5L, K13Q, T50A, A75S, S78T, R98K
VL: B3 VL with L4M, H33S, E78Q
On to B26, for which the binding result was “no binding”.

B27: hHC4-04 / hLC4-I (antibody, V domains shown)
VH: B1 VH with V5L, K13Q, A75S, S78T
VL: B3 VL with L4M, H33S, E78Q
Consider B27, for which the binding result is given as “no binding”.

B28: hHC4-I / hLC4-e (antibody, V domains shown)
VH: B1 VH with V5L, K13Q, G33A, T50A, P61A, A75S, S78T, R98K
VL: B1 VL
With B28, the relative binding ratio was 0.07.

B29: hHC4-04 / hLC4-L2 (antibody, V domains shown)
VH: B1 VH with V5L, K13Q, A75S, S78T
VL: B3 VL with L21M, R24S, A25V
For B29, the relative binding ratio came out at 0.67.

B30: hHC4-04 / chLC4 (antibody, V domains shown)
VH: B1 VH with V5L, K13Q, A75S, S78T
VL: B2 VL
For the molecule B30, the relative binding ratio was determined as 0.71.

B31: hHC4-K / hLC4-f (antibody, V domains shown)
VH: B1 VH with T50S, T58I, P61A
VL: B1 VL with F70Y
In the case of B31, the binding result is “no binding”.

B32: hHC4-c / hLC4-f (antibody, V domains shown)
VH: B1 VH with K13Q, S49A
VL: B1 VL with F70Y
Consider B32, for which the relative binding ratio was found to be 0.34.

B33: hHC4-04 / hLC4-e (antibody, V domains shown)
VH: B1 VH with V5L, K13Q, A75S, S78T
VL: B1 VL
In the case of B33, the relative binding ratio was determined as 0.2.
